This is an account of results in the FLAb antibody collection (doi:10.1101/2023.12.08.570889).

To fix the notation:
B1: unnamed (protein)
chain 1: QMQLVESGGGVVQPGRSLRLSCAASGFTFRTYGMHWVRQAPGKGLEWVAVIWYDGSNKHYADSVKGRFTITRDNSKNTLNLQMNSLRAEDTAVYYCAREPPLFYSSWSLDNWGQGTMVTVSS
chain 2: SYVLTQPPSVSVAPGQTARITCGGNNLGSKSVHWYQQKPGQAPVLVVYDDSDRPSWIPERFSGSNSGNTATLTISRGEAGDEADYYCQVWDSSSDHVVFGGGTKLTVL
B2: unnamed (protein)
chain 1: QMQLVESGGGVVQPGRSLRLSCAASGFTFRTYGMHWVRQAPGKGLEWVAVIWYDGSNKHYADSVKGRFTITRDNSKNTLNLQMNSLRAEDTAVYYCARGPMALLYYRGFDYWGQGTMVTVSS
chain 2: SYVLTQPPSVSVAPGQTARITCGGNNLGSKSVHWYQQKPGQAPVLVVYDDSDRPSWIPERFSGSNSGNTATLTISRGEAGDEADYYCQVWDSSSDHVVFGGGTKLTVL
B3: unnamed (protein)
chain 1: QMQLVESGGGVVQPGRSLRLSCAASGFTFRTYGMHWVRQAPGKGLEWVAVIWYDGSNKHYADSVKGRFTITRDNSKNTLNLQMNSLRAEDTAVYYCARAPRYDDRWEAFDVWGQGTMVTVSS
chain 2: SYVLTQPPSVSVAPGQTARITCGGNNLGSKSVHWYQQKPGQAPVLVVYDDSDRPSWIPERFSGSNSGNTATLTISRGEAGDEADYYCQVWDSSSDHVVFGGGTKLTVL
B4: unnamed (protein)
chain 1: QMQLVESGGGVVQPGRSLRLSCAASGFTFRTYGMHWVRQAPGKGLEWVAVIWYDGSNKHYADSVKGRFTITRDNSKNTLNLQMNSLRAEDTAVYYCARDRFDVASGSSFDFWGQGTMVTVSS
chain 2: SYVLTQPPSVSVAPGQTARITCGGNNLGSKSVHWYQQKPGQAPVLVVYDDSDRPSWIPERFSGSNSGNTATLTISRGEAGDEADYYCQVWDSSSDHVVFGGGTKLTVL
B5: unnamed (protein)
chain 1: QMQLVESGGGVVQPGRSLRLSCAASGFTFRTYGMHWVRQAPGKGLEWVAVIWYDGSNKHYADSVKGRFTITRDNSKNTLNLQMNSLRAEDTAVYYCARPPYYYGTTYYFDYWGQGTMVTVSS
chain 2: SYVLTQPPSVSVAPGQTARITCGGNNLGSKSVHWYQQKPGQAPVLVVYDDSDRPSWIPERFSGSNSGNTATLTISRGEAGDEADYYCQVWDSSSDHVVFGGGTKLTVL
B6: unnamed (protein)
chain 1: QMQLVESGGGVVQPGRSLRLSCAASGFTFRTYGMHWVRQAPGKGLEWVAVIWYDGSNKHYADSVKGRFTITRDNSKNTLNLQMNSLRAEDTAVYYCARAPRYDYYLEAFDVWGQGTMVTVSS
chain 2: SYVLTQPPSVSVAPGQTARITCGGNNLGSKSVHWYQQKPGQAPVLVVYDDSDRPSWIPERFSGSNSGNTATLTISRGEAGDEADYYCQVWDSSSDHVVFGGGTKLTVL
B7: unnamed (protein)
chain 1: QMQLVESGGGVVQPGRSLRLSCAASGFTFRTYGMHWVRQAPGKGLEWVAVIWYDGSNKHYADSVKGRFTITRDNSKNTLNLQMNSLRAEDTAVYYCARSPRYYWYYEAFDVWGQGTMVTVSS
chain 2: SYVLTQPPSVSVAPGQTARITCGGNNLGSKSVHWYQQKPGQAPVLVVYDDSDRPSWIPERFSGSNSGNTATLTISRGEAGDEADYYCQVWDSSSDHVVFGGGTKLTVL
B8: unnamed (protein)
chain 1: QMQLVESGGGVVQPGRSLRLSCAASGFTFRTYGMHWVRQAPGKGLEWVAVIWYDGSNKHYADSVKGRFTITRDNSKNTLNLQMNSLRAEDTAVYYCVRGSITWPTEYYLDYWGQGTMVTVSS
chain 2: SYVLTQPPSVSVAPGQTARITCGGNNLGSKSVHWYQQKPGQAPVLVVYDDSDRPSWIPERFSGSNSGNTATLTISRGEAGDEADYYCQVWDSSSDHVVFGGGTKLTVL
B9: unnamed (protein)
chain 1: QMQLVESGGGVVQPGRSLRLSCAASGFTFRTYGMHWVRQAPGKGLEWVAVIWYDGSNKHYADSVKGRFTITRDNSKNTLNLQMNSLRAEDTAVYYCTRDGGLLFAYYAMDYWGQGTMVTVSS
chain 2: SYVLTQPPSVSVAPGQTARITCGGNNLGSKSVHWYQQKPGQAPVLVVYDDSDRPSWIPERFSGSNSGNTATLTISRGEAGDEADYYCQVWDSSSDHVVFGGGTKLTVL
B10: unnamed (protein)
chain 1: QMQLVESGGGVVQPGRSLRLSCAASGFTFRTYGMHWVRQAPGKGLEWVAVIWYDGSNKHYADSVKGRFTITRDNSKNTLNLQMNSLRAEDTAVYYCARSPRYDWYWEAFDVWGQGTMVTVSS
chain 2: SYVLTQPPSVSVAPGQTARITCGGNNLGSKSVHWYQQKPGQAPVLVVYDDSDRPSWIPERFSGSNSGNTATLTISRGEAGDEADYYCQVWDSSSDHVVFGGGTKLTVL
B11: unnamed (protein)
chain 1: QMQLVESGGGVVQPGRSLRLSCAASGFTFRTYGMHWVRQAPGKGLEWVAVIWYDGSNKHYADSVKGRFTITRDNSKNTLNLQMNSLRAEDTAVYYCARSPRYDYYWEAFDVWGQGTMVTVSS
chain 2: SYVLTQPPSVSVAPGQTARITCGGNNLGSKSVHWYQQKPGQAPVLVVYDDSDRPSWIPERFSGSNSGNTATLTISRGEAGDEADYYCQVWDSSSDHVVFGGGTKLTVL
B12: unnamed (protein)
chain 1: QMQLVESGGGVVQPGRSLRLSCAASGFTFRTYGMHWVRQAPGKGLEWVAVIWYDGSNKHYADSVKGRFTITRDNSKNTLNLQMNSLRAEDTAVYYCARAPRYDTYYEAFDVWGQGTMVTVSS
chain 2: SYVLTQPPSVSVAPGQTARITCGGNNLGSKSVHWYQQKPGQAPVLVVYDDSDRPSWIPERFSGSNSGNTATLTISRGEAGDEADYYCQVWDSSSDHVVFGGGTKLTVL
B13: unnamed (protein)
chain 1: QMQLVESGGGVVQPGRSLRLSCAASGFTFRTYGMHWVRQAPGKGLEWVAVIWYDGSNKHYADSVKGRFTITRDNSKNTLNLQMNSLRAEDTAVYYCARDESTGDYYYYMDVWGQGTMVTVSS
chain 2: SYVLTQPPSVSVAPGQTARITCGGNNLGSKSVHWYQQKPGQAPVLVVYDDSDRPSWIPERFSGSNSGNTATLTISRGEAGDEADYYCQVWDSSSDHVVFGGGTKLTVL
B14: unnamed (protein)
chain 1: QMQLVESGGGVVQPGRSLRLSCAASGFTFRTYGMHWVRQAPGKGLEWVAVIWYDGSNKHYADSVKGRFTITRDNSKNTLNLQMNSLRAEDTAVYYCARGPFSRYDYFAMDNWGQGTMVTVSS
chain 2: SYVLTQPPSVSVAPGQTARITCGGNNLGSKSVHWYQQKPGQAPVLVVYDDSDRPSWIPERFSGSNSGNTATLTISRGEAGDEADYYCQVWDSSSDHVVFGGGTKLTVL
B15: unnamed (protein)
chain 1: QMQLVESGGGVVQPGRSLRLSCAASGFTFRTYGMHWVRQAPGKGLEWVAVIWYDGSNKHYADSVKGRFTITRDNSKNTLNLQMNSLRAEDTAVYYCNAAIRTTVRTSAQEYWGQGTMVTVSS
chain 2: SYVLTQPPSVSVAPGQTARITCGGNNLGSKSVHWYQQKPGQAPVLVVYDDSDRPSWIPERFSGSNSGNTATLTISRGEAGDEADYYCQVWDSSSDHVVFGGGTKLTVL
B16: unnamed (protein)
chain 1: QMQLVESGGGVVQPGRSLRLSCAASGFTFRTYGMHWVRQAPGKGLEWVAVIWYDGSNKHYADSVKGRFTITRDNSKNTLNLQMNSLRAEDTAVYYCANLKDSRYSGSYYDYWGQGTMVTVSS
chain 2: SYVLTQPPSVSVAPGQTARITCGGNNLGSKSVHWYQQKPGQAPVLVVYDDSDRPSWIPERFSGSNSGNTATLTISRGEAGDEADYYCQVWDSSSDHVVFGGGTKLTVL
B17: unnamed (protein)
chain 1: EVQLVQSGAEVKKPGESLRISCKGSGYTFSSYWISWVRQMPGKGLEWMGKIYPGDSYTNYSPSFQGQVTISADKSISTAYLQWSSLKASDTAMYYCARGYGILDYWGQGTLVTVSS
chain 2: SYELTQPPSVSVSPGQTASITCSGDNIGDQYAHWYQQKPGQSPVLVIYQDKNRPSGIPERFSGSNSGNTATLTISGTQAMDEADYYCATYTGFGSLAVFGGGTKLTVL
B18: unnamed (protein)
chain 1: EVQLVQSGAEVKKPGESLRISCKGSGYTFSSYWISWVRQMPGKGLEWMGKIYPGDSYTNYSPSFQGQVTISADKSISTAYLQWSSLKASDTAMYYCARGYGIFDYWGQGTLVTVSS
chain 2: SYELTQPPSVSVSPGQTASITCSGDNIGDQYAHWYQQKPGQSPVLVIYQDKNRPSGIPERFSGSNSGNTATLTISGTQAMDEADYYCATYTGFGSLAVFGGGTKLTVL
B19: unnamed (protein)
chain 1: EVQLVQSGAEVKKPGESLRISCKGSGYTFSNYWISWVRQMPGKGLEWMGKIYPGDSYTNYSPSFQGQVTISADKSISTAYLQWSSLKASDTAMYYCARGEGLFDYWGQGTLVTVSS
chain 2: SYELTQPPSVSVSPGQTASITCSGDNIGDQYAHWYQQKPGQSPVLVIYQDKNRPSGIPERFSGSNSGNTATLTISGTQAMDEADYYCATYTGFGSLAVFGGGTKLTVL

The target in the first experiment is TSLP, Q969D9. Description: Kd (SPR).
As usually defined, the Kd is the constant that tells how readily two partners part at equilibrium. Low readings indicate higher affinity, high ones lower affinity. For B1, the Kd is 0.203 nM.

The molecule B2 returned a dissociation constant (Kd) of 183 nM. As to B3, the Kd came to 193 nM. As to B4, the Kd came to 126 nM. The same measure, in the same setting: the value for B5 was 300 nM. Still for that read-out and setting: the value for B6 was 238 nM. For B7, the Kd was found to be 81.9 nM. In the case of B8, the Kd came out at 426 nM.

Regarding B9, the equilibrium dissociation constant (Kd) stood at 110 nM. On the same count and under the same terms, the value for B10 was 240 nM; that for B11 was 290 nM; that for B12 was 83.9 nM. The same measure, in the same setting: for B13 the value was 229 nM; for B14, 557 nM. The molecule B15 returned a dissociation constant Kd of 103 nM.

Consider B16, for which the Kd worked out at 523 nM.

Another experiment concerns the target TNFRSF9, Q07011. Description: Kd (SPR).
Molecule B17 gave a dissociation constant Kd of 59.4 nM. Still for that read-out and setting: for B18 the value was 58.6 nM; for B19, 51 nM.
